Among the data in patent publication EP2649983A1, “Compounds which inhibit neuronal exocytosis (II)” (Lipotec, S.A., priority 2012, dated 2013) are % inhibition formation SNARE complex values, retold here.

Assay [1] has as its target SNARE complex (VAMP, syntaxin and SNAP-25 bound to GST) (UniProt P60880). As to the kind of experiment: competition ELISA: VAMP on plate, SNAP-25-GST + syntaxin, anti-GST detection; compound at 2.5 mM. A general note: In an ELISA, binding on a coated surface is turned into a signal by an enzyme label.
Assay [2] shares this target. Kind of assay: competition ELISA: VAMP on plate, SNAP-25-GST + syntaxin, anti-GST detection; compound at 0.5 mM.
Assay [3] addresses SNARE complex (VAMP, syntaxin and SNAP-25) (UniProt P60880). As to the kind of experiment: SDS-PAGE of SNARE complex: VAMP + syntaxin + compound, then SNAP-25; image analysis; compound at 5 mM.
The target is the same in assay [4]. As to the kind of experiment: SDS-PAGE of SNARE complex: VAMP + syntaxin + compound, then SNAP-25; image analysis; compound at 1 mM.

Non-standard residues stand in square brackets, D forms with d. *: point of attachment. Met(O2) = CS(=O)(=O)CC[C@H](N)C(=O)O; Palmitoyl = CCCCCCCCCCCCCCCC(=O)*; NHhexadecyl = CCCCCCCCCCCCCCCCN*; Met(O) = CS(=O)CC[C@H](N)C(=O)O; Myristoyl = CCCCCCCCCCCCCC(=O)*

Sequence of SNARE complex (VAMP, syntaxin and SNAP-25) (P60880 whole entry, one chain of several): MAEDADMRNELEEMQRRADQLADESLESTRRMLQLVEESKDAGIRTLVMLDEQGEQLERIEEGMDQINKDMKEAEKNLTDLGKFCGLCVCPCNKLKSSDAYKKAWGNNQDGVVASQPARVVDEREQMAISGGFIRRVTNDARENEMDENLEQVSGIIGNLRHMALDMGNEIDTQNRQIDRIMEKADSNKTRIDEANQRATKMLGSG
Sequence of SNARE complex (VAMP, syntaxin and SNAP-25 bound to GST) (P60880 whole entry, one chain of several): as above

B1: Ac-SEQ ID NO:1-OH (peptide)
peptide: Ac-EHLKQWM-OH
On to B1, for which the % inhibition formation SNARE complex in assay [1] turned out to be 59%; in assay [2] it was 29%.

B2: Myr-SEQ ID NO:15-NH2 (peptide)
peptide: Myristoyl-NHFLNWM-NH2
For B2, the % inhibition formation SNARE complex in assay [3] worked out at 76%; in assay [1], 19%; in assay [4], 23%.

B3: Palm-SEQ ID NO:14-NH2 (peptide)
peptide: Palmitoyl-EDLKRWM-NH2
In the case of B3, the % inhibition formation SNARE complex in assay [3] stood at 93%; in assay [1], 42%; in assay [2], 18%; in assay [4] it was 41%.

B4: Ac-SEQ ID NO:3-NH2 (peptide)
peptide: Ac-QHLHNVM-NH2
As to B4, the % inhibition formation SNARE complex in assay [1] came to 64%; in assay [2] it was 31%.

B5: Ac-SEQ ID NO:22-NH2 (peptide)
peptide: Ac-DHLKKWM-NH2
Consider B5, for which the % inhibition formation SNARE complex in assay [1] came to 72%; in assay [2], 18%.

B6: Ac-SEQ ID NO:25-NH2 (peptide)
peptide: Ac-DHFLDWM-NH2
For the molecule B6, the % inhibition formation SNARE complex in assay [3] was determined as 100%; in assay [1], 71%; in assay [2], 40%; in assay [4] it was 83%.

B7: Ac-SEQ ID NO:23-NH2 (peptide)
peptide: Ac-NDLKDWM-NH2
Regarding B7, the % inhibition formation SNARE complex is 60% in assay [1] and 10% in assay [2].

B8: Ac-SEQ ID NO:12-NH2 (peptide)
peptide: Ac-QHLKEWM-NH2
Take B8: the % inhibition formation SNARE complex in assay [1] turned out to be 71%; in assay [2] it was 20%.

B9: H-SEQ ID NO:1-NH2 (peptide)
peptide: H-EHLKQWM-NH2
On to B9, for which the % inhibition formation SNARE complex came out at 58% in assay [1] and 30% in assay [2].

B10: Ac-SEQ ID NO:14-NH-(CH2)15-CH3 (peptide)
peptide: Ac-EDLKRWM-NHhexadecyl
As for B10, the % inhibition formation SNARE complex was 85% in assay [3], 35% in assay [1], 11% in assay [2] and 43% in assay [4].

B11: Ac-SEQ ID NO:2-NH2 (peptide)
peptide: Ac-QDFLHWM-NH2
As to B11, the % inhibition formation SNARE complex came to 80% in assay [3], 64% in assay [1], 26% in assay [2] and 37% in assay [4].

B12: Palm-SEQ ID NO:25-NH2 (peptide)
peptide: Palmitoyl-DHFLDWM-NH2
Consider B12, for which the % inhibition formation SNARE complex in assay [3] came to 85%; in assay [1] it was 53%; in assay [2] it was 24%; in assay [4] it was 36%.

B13: Palm-SEQ ID NO:3-NH2 (peptide)
peptide: Palmitoyl-QHLHNVM-NH2
For B13, the % inhibition formation SNARE complex was 51% in assay [1] and 20% in assay [2].

B14: Palm-SEQ ID NO:15-NH2 (peptide)
peptide: Palmitoyl-NHFLNWM-NH2
On to B14, for which the % inhibition formation SNARE complex stood at 74% in assay [3], 21% in assay [1], 18% in assay [2] and 22% in assay [4].

B15: Ac-SEQ ID NO:24-NH2 (peptide)
peptide: Ac-DHFQQRM-NH2
In the case of B15, the % inhibition formation SNARE complex in assay [3] worked out at 100%; in assay [1], 55%; in assay [2], 41%; in assay [4], 48%.

B16: Ac-SEQ ID NO:32-NH2 (peptide)
peptide: Ac-NHLKHWM-NH2
Take B16: the % inhibition formation SNARE complex in assay [1] was 19%.

B17: Ac-SEQ ID NO:27-NH2 (peptide)
peptide: Ac-QHLKNWM-NH2
With B17, in assay [1], the % inhibition formation SNARE complex turned out to be 14%.

B18: Ac-SEQ ID NO:56-NH2 (peptide)
peptide: Ac-DHFLDW[Met(O)]-NH2
As to B18, the % inhibition formation SNARE complex in assay [3] was found to be 91%; in assay [1], 64%; in assay [2], 16%; in assay [4] it was 40%.

B19: Ac-SEQ ID NO:31-NH2 (peptide)
peptide: Ac-NHLKNWM-NH2
Take B19: the values for the % inhibition formation SNARE complex in assay [1] and in assay [2] were 59% and 26%, respectively.

B20: Ac-SEQ ID NO:1-NH2 (peptide)
peptide: Ac-EHLKQWM-NH2
For the molecule B20, the % inhibition formation SNARE complex was 100% in assay [3], 63% in assay [1], 33% in assay [2] and 59% in assay [4].

B21: Palm-SEQ ID NO:34-NH2 (peptide)
peptide: Palmitoyl-DHFLNWM-NH2
For the molecule B21, the % inhibition formation SNARE complex was 51% in assay [1] and 19% in assay [2].

B22: Ac-SEQ ID NO:15-NH2 (peptide)
peptide: Ac-NHFLNWM-NH2
In the case of B22, the % inhibition formation SNARE complex came to 100% in assay [3], 42% in assay [1], 48% in assay [2] and 50% in assay [4].

B23: Ac-SEQ ID NO:13-NH2 (peptide)
peptide: Ac-RHFLQWM-NH2
For the molecule B23, the % inhibition formation SNARE complex in assay [1] worked out at 20%.

B24: Ac-SEQ ID NO:30-NH2 (peptide)
peptide: Ac-EHFLQWM-NH2
For the molecule B24, the % inhibition formation SNARE complex worked out at 71% in assay [1] and 24% in assay [2].

B25: Palm-SEQ ID NO:1-NH2 (peptide)
peptide: Palmitoyl-EHLKQWM-NH2
With B25, the % inhibition formation SNARE complex was 72% in assay [3], 47% in assay [1], 21% in assay [2] and 26% in assay [4].

B26: Ac-SEQ ID NO:61-NH2 (peptide)
peptide: Ac-DHFLDW[Met(O2)]-NH2
For the molecule B26, the % inhibition formation SNARE complex was 89% in assay [3], 26% in assay [1], 8% in assay [2] and 44% in assay [4].

B27: Ac-SEQ ID NO:8-NH2 (peptide)
peptide: Ac-EHLKKWM-NH2
For B27, the % inhibition formation SNARE complex in assay [1] was found to be 44%; in assay [2], 11%.

B28: Ac-SEQ ID NO:34-NH2 (peptide)
peptide: Ac-DHFLNWM-NH2
As to B28, the % inhibition formation SNARE complex in assay [3] is 59%; in assay [1], 85%; in assay [2] it was 27%; in assay [4], 14%.

B29: Palm-SEQ ID NO:24-NH2 (peptide)
peptide: Palmitoyl-DHFQQRM-NH2
On to B29, for which the % inhibition formation SNARE complex in assay [3] worked out at 66%; in assay [1] it was 44%; in assay [2] it was 36%; in assay [4], 17%.

B30: Ac-SEQ ID NO:14-NH2 (peptide)
peptide: Ac-EDLKRWM-NH2
For the molecule B30, the % inhibition formation SNARE complex was 100% in assay [3], 67% in assay [1], 43% in assay [2] and 83% in assay [4].
